One data set has as its target T1, human KISS-receptor (Homo sapiens, UniProt Q969F8).
T1 construct: expressed in transfected cells; host or cells: CHO-k1 cells that also express mitochondrially targeted aequorin, Gα16 and an NFAT-luciferase reporter
The data set can be described thus: NFAT-regulated luciferase reporter gene assay in CHO-k1 cells, agonist activity. The data set is classed as cell-based. On the technique in general: Reporter assays use an easily measured gene product as a stand-in for the process of interest.

Data set [1] in a line: In vitro stability in human serum (LC/MS/MS). The conditions noted are these: human.
Method: Test compound is added to 1.5 mL human serum in a 96-wells deepwell plate in a final concentration of 750 nM. The compound is mixed and immediately thereafter a 100 μl sample is harvested in a 96-wells 2D-tuberack (T=0 sample). The 2 D-tubes are closed with rubber tube caps and the sample plate is stored at −20° CF. in the freezer. The deepwell plate is put into an incubator which was set at humidified (95%) atmosphere at 5-7% CO2 and 37° C. for an incubation period of maximum 240 h. During this incubation period, samples of 100 μl are collected on various time intervals, dependent on the test compound used; time points 0, 1, 2, 3, 6, 24, 48, 72 h in case of Kisspeptides and 0, 3, 6, 24, 48, 72, 168, 240 h in case of kisspeptide-pentasaccharide conjugates. Sample plates are put on ice in case of sampling and stored at −20° C. until analysis by LC/MS/MS.
For LC-MS/MS analysis, the compounds are separated over an XTerra RP8 column and using a gradient mobile phase of ammonium acetate buffer and acetonitrile at a fixed column temperature. MS/MS detection is done with a triple quadrupole mass spectrometer and employing negative ion electrospray ionization. The mass spectrometer is set up to achieve a known degree of in source fragmentation, where the initially formed multiply charged negative ions lose one or more SO3 molecules. The most abundant of these secondary ions are then subjected to a common MS/MS experiment in which a single SO3 loss is monitored. The Q1 and Q3 mass filter settings for this MS/MS experiment have commonly been determined in method development. […] Internal standardization is accomplished by adding a different conjugate of approximately the same size to the bioanalytical samples.
The rate of compound loss is expressed as a half-life (plasma t^1/2). The t^1/2 for the test compound can be determined by plotting the natural logarithm (In) of the measured concentrations against time and fitting the line through all data points. The gradient of this line is the first order rate constant (k) for substrate disappearance and is determined by regression analysis. The rate constant is converted to a half-life according to the following equation: In vitro half-life(t^1/2)=−ln 2/k

Read-outs that look alike come from different tables or passages of the source. Some results are limits rather than exact numbers.

T1 sequence (Q969F8 whole entry): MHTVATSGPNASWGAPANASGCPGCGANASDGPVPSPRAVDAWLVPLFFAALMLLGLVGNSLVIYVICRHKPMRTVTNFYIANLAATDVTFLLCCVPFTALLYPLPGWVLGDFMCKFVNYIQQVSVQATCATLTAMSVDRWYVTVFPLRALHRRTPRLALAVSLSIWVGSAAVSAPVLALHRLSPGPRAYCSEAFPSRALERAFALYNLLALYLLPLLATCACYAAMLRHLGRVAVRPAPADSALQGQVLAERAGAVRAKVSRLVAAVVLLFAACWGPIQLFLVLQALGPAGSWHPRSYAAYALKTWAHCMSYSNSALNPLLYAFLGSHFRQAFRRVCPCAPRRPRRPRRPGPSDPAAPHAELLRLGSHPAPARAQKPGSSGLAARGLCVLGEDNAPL

In the case of `CNC(=N)NCCC[C@H](NC(=O)[C@H](CC(C)C)NC(=O)NNC(=O)[C@H](Cc1ccccc1)NC(=O)[C@@H](NC(=O)[C@H](CC(N)=O)NC(=O)[C@H](Cc1c[nH]c2ccccc12)NC(=O)[C@H](CC(N)=O)NC(=O)[C@@H](Cc1ccc(O)cc1)NC(=O)CCCCn1cc(CCC(=O)NCCOCCOCCOCCO[C@H]2[C@H](OC)[C@@H](OC)[C@@H](O[C@H]3[C@H](OC)[C@@H](OC)[C@H](O[C@H]4[C@H](OS(=O)(=O)O)[C@@H](OS(=O)(=O)O)[C@@H](O[C@H]5[C@H](OC)[C@@H](OC)[C@H](O[C@H]6[C@H](OC)[C@@H](OS(=O)(=O)O)[C@@H](OC)O[C@@H]6COS(=O)(=O)O)O[C@H]5C(=O)O)O[C@@H]4COS(=O)(=O)O)O[C@@H]3C(=O)O)O[C@@H]2COS(=O)(=O)O)nn1)[C@@H](C)O)C(=O)N[C@@H](Cc1ccccc1)C(N)=O` [Conjugate C7], the EC50 was 0.158 nM at human KISS-receptor (pEC50, absence of human serum) and 0.501 nM on human KISS-receptor (pEC50 serum, presence of 20% human serum). Also, in data set [1], the half-life at 750 nM is 171 h. Take `CNC(=N)NCCC[C@H](NC(=O)[C@H](CC(C)C)NC(=O)NNC(=O)[C@H](Cc1ccccc1)NC(=O)[C@@H](NC(=O)[C@H](CC(N)=O)NC(=O)[C@H](Cc1c[nH]c2ccccc12)NC(=O)[C@H](CC(N)=O)NC(=O)[C@@H](Cc1ccc(O)cc1)NC(=O)CCOCCOCCOCCOCCn1cc(CCC(=O)NCCOCCOCCOCCO[C@H]2[C@H](OC)[C@@H](OC)[C@@H](O[C@H]3[C@H](OC)[C@@H](OC)[C@H](O[C@H]4[C@H](OS(=O)(=O)O)[C@@H](OS(=O)(=O)O)[C@@H](O[C@H]5[C@H](OC)[C@@H](OC)[C@H](O[C@H]6[C@H](OC)[C@@H](OS(=O)(=O)O)[C@@H](OC)O[C@@H]6COS(=O)(=O)O)O[C@H]5C(=O)O)O[C@@H]4COS(=O)(=O)O)O[C@@H]3C(=O)O)O[C@@H]2COS(=O)(=O)O)nn1)[C@@H](C)O)C(=O)N[C@@H](Cc1ccccc1)C(N)=O` [Conjugate C10]: the EC50 is 0.123 nM on human KISS-receptor (absence of human serum, read-out: pEC50 (converted)) and 0.525 nM at human KISS-receptor (presence of 20% human serum, read-out: pEC50 serum (converted)). In data set [1], the half-life at 750 nM was 121 h. On to `CNC(=N)NCCC[C@H](NC(=O)[C@H](CC(C)C)n1cc(CNC(=O)[C@H](Cc2ccccc2)NC(=O)[C@@H](NC(=O)[C@H](CC(N)=O)NC(=O)[C@H](Cc2c[nH]c3ccccc23)NC(=O)[C@H](CC(N)=O)NC(=O)[C@@H](Cc2ccc(O)cc2)NC(=O)CCCCn2cc(CCC(=O)NCCOCCOCCOCCO[C@H]3[C@H](OC)[C@@H](OC)[C@@H](O[C@H]4[C@H](OC)[C@@H](OC)[C@H](O[C@H]5[C@H](OS(=O)(=O)O)[C@@H](OS(=O)(=O)O)[C@@H](O[C@H]6[C@H](OC)[C@@H](OC)[C@H](O[C@H]7[C@H](OC)[C@@H](OS(=O)(=O)O)[C@@H](OC)O[C@@H]7COS(=O)(=O)O)O[C@H]6C(=O)O)O[C@@H]5COS(=O)(=O)O)O[C@@H]4C(=O)O)O[C@@H]3COS(=O)(=O)O)nn2)[C@@H](C)O)nn1)C(=O)N[C@@H](Cc1ccccc1)C(N)=O` [Conjugate C18], for which the half-life at 750 nM in data set [1] is 233 h. The same measure, in the same setting: the figure for `CNC(=N)NCCC[C@H](NC(=O)[C@H](CC(C)C)n1cc(CNC(=O)[C@H](Cc2ccccc2)NC(=O)[C@@H](NC(=O)[C@H](CC(N)=O)NC(=O)[C@H](Cc2c[nH]c3ccccc23)NC(=O)[C@H](CC(N)=O)NC(=O)[C@@H](Cc2ccc(O)cc2)NC(=O)CCOCCOCCOCCOCCn2cc(CCC(=O)NCCOCCOCCOCCO[C@H]3[C@H](OC)[C@@H](OC)[C@@H](O[C@H]4[C@H](OC)[C@@H](OC)[C@H](O[C@H]5[C@H](OS(=O)(=O)O)[C@@H](OS(=O)(=O)O)[C@@H](O[C@H]6[C@H](OC)[C@@H](OC)[C@H](O[C@H]7[C@H](OC)[C@@H](OS(=O)(=O)O)[C@@H](OC)O[C@@H]7COS(=O)(=O)O)O[C@H]6C(=O)O)O[C@@H]5COS(=O)(=O)O)O[C@@H]4C(=O)O)O[C@@H]3COS(=O)(=O)O)nn2)[C@@H](C)O)nn1)C(=O)N[C@@H](Cc1ccccc1)C(N)=O` [Conjugate C19] is 175 h. Turning to `CNC(=N)NCCC[C@H](NC(=O)[C@H](CC(C)C)n1cc(CNC(=O)[C@H](Cc2ccccc2)NC(=O)[C@@H](NC(=O)[C@H](CC(N)=O)NC(=O)[C@H](Cc2c[nH]c3ccccc23)NC(=O)[C@H](CC(N)=O)NC(=O)[C@@H](Cc2ccc(O)cc2)NC(=O)CCOCCOCCOCCOCCn2cc(CCC(=O)NCCOCCOCCOCCO[C@H]3[C@H](OC)[C@@H](OC)[C@@H](O[C@H]4[C@H](OC)[C@@H](OC)[C@H](O[C@H]5[C@H](OS(=O)(=O)O)[C@@H](OS(=O)(=O)O)[C@@H](O[C@H]6[C@H](OC)[C@@H](OC)[C@H](O[C@H]7[C@H](OS(=O)(=O)O)[C@@H](OS(=O)(=O)O)[C@@H](OC)O[C@@H]7COS(=O)(=O)O)O[C@H]6C(=O)O)O[C@@H]5COS(=O)(=O)O)O[C@@H]4C(=O)O)O[C@@H]3COS(=O)(=O)O)nn2)[C@@H](C)O)nn1)C(=O)N[C@@H](Cc1ccccc1)C(N)=O` [Conjugate C20], the half-life at 750 nM in data set [1] is more than 240 h. Still for that read-out and setting: then `CNC(=N)NCCC[C@H](NC(=O)[C@H](CC(C)C)NC(=O)NNC(=O)[C@H](Cc1ccccc1)NC(=O)[C@@H](NC(=O)[C@H](CC(N)=O)NC(=O)[C@H](Cc1c[nH]c2ccccc12)NC(=O)[C@H](CC(N)=O)NC(=O)[C@H](Cc1ccc(O)cc1)NC(=O)CCCCn1cc(CCC(=O)NCCOCCOCCOCCO[C@H]2[C@H](OC)[C@@H](OC)[C@@H](O[C@H]3[C@H](OC)[C@@H](OC)[C@H](O[C@H]4[C@H](OS(=O)(=O)O)[C@@H](OS(=O)(=O)O)[C@@H](O[C@H]5[C@H](OC)[C@@H](OC)[C@H](O[C@H]6[C@H](OS(=O)(=O)O)[C@@H](OS(=O)(=O)O)[C@@H](OC)O[C@@H]6COS(=O)(=O)O)O[C@H]5C(=O)O)O[C@@H]4COS(=O)(=O)O)O[C@@H]3C(=O)O)O[C@@H]2COS(=O)(=O)O)nn1)[C@@H](C)O)C(=O)N[C@@H](Cc1ccccc1)C(N)=O` [Conjugate C22], with more than 240 h; and `CNC(=N)NCCC[C@H](NC(=O)[C@H](CC(C)C)NC(=O)CNC(=O)[C@H](Cc1ccccc1)NC(=O)[C@@H](NC(=O)[C@H](CC(N)=O)NC(=O)[C@@H]1C[C@@H](O)CN1C(=O)[C@H](CC(N)=O)NC(=O)[C@H](Cc1ccc(O)cc1)NC(=O)CCOCCOCCOCCOCCn1cc(CCC(=O)NCCOCCOCCOCCO[C@H]2[C@H](OC)[C@@H](OC)[C@@H](O[C@H]3[C@H](OC)[C@@H](OC)[C@H](O[C@H]4[C@H](OS(=O)(=O)O)[C@@H](OS(=O)(=O)O)[C@@H](O[C@H]5[C@H](OC)[C@@H](OC)[C@H](O[C@H]6[C@H](OS(=O)(=O)O)[C@@H](OS(=O)(=O)O)[C@@H](OC)O[C@@H]6COS(=O)(=O)O)O[C@H]5C(=O)O)O[C@@H]4COS(=O)(=O)O)O[C@@H]3C(=O)O)O[C@@H]2COS(=O)(=O)O)nn1)[C@@H](C)O)C(=O)N[C@@H](Cc1ccccc1)C(N)=O` [Conjugate C26], with more than 240 h; and `CNC(=N)NCCC[C@H](NC(=O)[C@H](CC(C)C)NC(=O)NNC(=O)[C@H](Cc1ccccc1)NC(=O)[C@@H](NC(=O)[C@H](CC(N)=O)NC(=O)[C@@H]1C[C@@H](O)CN1C(=O)[C@@H](Cc1ccc(O)cc1)NC(=O)CCCCn1cc(CCC(=O)NCCOCCOCCOCCO[C@H]2[C@H](OC)[C@@H](OC)[C@@H](O[C@H]3[C@H](OC)[C@@H](OC)[C@H](O[C@H]4[C@H](OS(=O)(=O)O)[C@@H](OS(=O)(=O)O)[C@@H](O[C@H]5[C@H](OC)[C@@H](OC)[C@H](O[C@H]6[C@H](OS(=O)(=O)O)[C@@H](OS(=O)(=O)O)[C@@H](OC)O[C@@H]6COS(=O)(=O)O)O[C@H]5C(=O)O)O[C@@H]4COS(=O)(=O)O)O[C@@H]3C(=O)O)O[C@@H]2COS(=O)(=O)O)nn1)[C@@H](C)O)C(=O)N[C@@H](Cc1c[nH]c2ccccc12)C(N)=O` [Conjugate C31], with more than 240 h.

What is called half-life is how long it takes for the measured level to halve. Read a low half-life as fast loss.

These data come from patent US9127038B2, “Kisspeptide-pentasaccharide conjugates” (Merck Sharp & Dohme Corp., priority 2011, dated 2015).
